Assay: soluble on expression in E. coli; label from the status in PepcDB or PDB records

Q: For “MSLEKKHSVNVEIENPPGRFFIPEDYVQNPVERLRLYRRLASSLDEEDLEEILEEMKDRFGEPPEEVKLLVDYFRLRVRASKLGIKKIRFDHSMVEIFPSRNSPFLNHPRYDRRSGSVVLYTRKDPVEFLMDMKGIITITTDPNSSSVDKLAAALEHHHHHH”, which “soluble on expression in E. coli” value is on record?
A: soluble

Q: Which “soluble on expression in E. coli” value does the source give for “MSLEKKITPSELELNEFIKIINEMSGIDLTDKKNILALKLNKFLEGTNTKNFSEFLGKLKSNRQLKQETLDFVTIGETYFLRELAQLKEIIYYAKSLEKRVNILSAPCSSGEEVYSLALLAAQNFIKDMYILGVDINSSVIEKAKLGKYQGRTLQRLSESEKRRFFLESEDKFYTINKNELCTCKFELCNVFEEKFSRLGKFDIIASRNMIIYFDHESKLKLMERFHRILNDKGRLYVGNADLIPETIYFKKIFSPRGVYYEKEGHHHHHH” here?
A: soluble

Q: Which “soluble on expression in E. coli” value does the source give for “MSLEKKTLLTHCPDAPGLISKITNICYKHQLNIIHNNEFVDNASGHFFMRTELEGYFNDATLLADLDHALPQGTRRKLISSSRKRIVILVTKEAHCLGDILMKNYDGSLDVDIAAVVGNYDTLQRLTERFDIPYHCVSHEGLSREAHEQALLDVIDQYQPDYLVLAKYMRVLTPAFVERFHHKIINIHHSFLPAFIGAKPYQQAYERGVKIIGATAHFVTNDLDEGPIIKQDVIPVDHTFSAQDMAQAGRDVEKNVLSKALNKVLNDHVFVYGNKTVILERHHHHHH” here?
A: soluble

Q: For “MSLELFKSVKLDKNSGTPLYMQLSDKIAEMIENGILPADLKLPSIRQMSALLNVNSVTIVSCYKHLETKGYVYSRPGSGTYVAVVLPKQSENYSDRNIILDELYQSDDLNLINNGHIKINENTINFASATPKSSLFPVENFKLVLNEVLDRDRGNAFDYQDSQGYYPLRSSVRILLEKRKIACHEENIQIISGAQQGIDIIAKALLRQGDYVITESPTYTGAIAVFKSRGAEIADVPLSCDGPNLNILEYNLKKYKPKLIYTIPSFQNPTGISYSNEKRKEILALAERYDAYIIEDDYVSGLDFENMGFATVKSMDKSDRVIFLKSFSKIFMPGLRLGFMVVPSSLKSYIIEAKHATDISTSGLIQRAFDLYIRKGMWDGHFKLMFNIYKERYYKTIEALERHLPQNVQFHKPGGGLNIWLELPANCFTGSLLKAASAENIVFAPGRIFYSSTPTNLNNIRLSFAAVDADEIERGIEKLSELILRFDRNKSEGHHHHHH”, which “soluble on expression in E. coli” value is on record?
A: soluble

Q: With “MSLELIEENDFDAIYIGNSKVMIKDYRGFVATLRILREKFPNAVLITDLEPFFYPLAVYLGVDAFDVRSLKIYSYEGLGFTPFSPVIWDRPNDPIEFAREMIKIIKIAIQEGKLRYLVENFLPTVMNVGILRIADKEHGDYLEKYTPVHDKTVVFISEHSISRPEVFRWRKRIEERFEPPKGIDLLLIFPCSAKKPYSRSRSHMMYRKVMKEALGEKVHRVHELVVTSPYGVVPREWEWLAKYDIVVTGHWSESEVRFAGELLAQTIEKYPDIPIVAHVEGGYREAVKYAMELVNRDVIFTAVGSSTISKESLDKLKKTLKEFDLRDAEKDYRRYRFYENVRKVFDYYFGLGAGEAVLPENAQIVGSKMLRLIVNNSQTGTFQEGVISVTPFGMQRIYDKLNSYWVEVDFDIRGDVFAAGVERADEGIRPNDIVGIVRDGRVVAVGRAVLSGEEMVRAKKGIAVRVRKRVKNKEGHHHHHH” as the sequence, how does the “soluble on expression in E. coli” value read?
A: not soluble

Q: For “MSLENICDMNNKVKVAVLDTGIDKEHDYLKDNLVGGIAFECMHDYIFISDKFDDEDGHGTACASIIKKEYEDVELFVIKILRKDGITNIKVLEEALRYLLDTNIRLINLSLSVIGVESVKGLFEVCYELFRKGKIIVCSLANDFDLSYPAMFNNVIGVRGFTLDGDDSFWYNKKYDVQCVMDSNSYISCDINNSYRLPPKCNSYLSAKLTGKIAKILSEKPGITISDLNDKLESLATRNHWDSCDFDECSRIVNFKLDLYDKENALFEGHHHHHH”, which “soluble on expression in E. coli” value is on record?
A: soluble

Q: For “MSLEPDELFDIEMRLLLHGVRQVYGHDFTDYSEASIKRRITQWFATSGYGTLSEAQAAILRNREAFDSLLRGITVNVSEMFRDPAFFRALREEIVPHLKTYPFVKIWHAGCSSGEEAYSLAILLEEEGMKGRFRMYATDINNEVLQNAREGIFPLKEMQKYTRNYQAAGGKGAFSDYYLARYEHAIMIQSLRDQIVFASHNLAVDADFGEMHLILCRNVLIYFKPTLKERVLRLFDTCLIPGGFLCLGLKESLDGRRIASRYAETVERMRIYRKSYGQEQSEGHHHHHH”, which “soluble on expression in E. coli” value is on record?
A: not soluble

Q: For “MSLEPYRPICQNRPICGKIPRLNLTEGDTVLDREGYRPNVGIILINERNEVFWGKRVREHSWQFPQGGIKPGESPETAMYRELYEEVGLLPQHVKIVGRTRDWLRYDVPNNWVRREWRGSYRGQKQIWYLLRLTGRDCDVNLRATRHPEFDGWRWHQYWAPVDEVIDFKRDVYLEALKELSSRFLRGMESYEDFAARQPSGNREGHHHHHH”, which “soluble on expression in E. coli” value is on record?
A: soluble

Q: Which “soluble on expression in E. coli” value does the source give for “MSLEQSDRDRPLADRMRPRTLDEFAGQEHILAPGKPLRVQIDRDDIGSLIFWGPPGVGKTTLAKIIAAMTHADFIEFSAVLSGIKEIKQVMADAERVRQYGTRTILFVDEIHRFNRAQQDAFLPHVERGNIKLIGATTENPSFEVNSALLSRSRVYTLTPLTEEQIVGLLRRALTDTERGLAELHVTAEDIALARIAAYASGDARSGYNVLEVAAQAAGATSERIITEQIVADALQRRVLRYDKSGEEHYNLISALHKSVRNSDPDAALYWLARMIESGEDALYIARRVVRMAVEDIGLADPNALALTLAAKDAIDFLGMPEANLALAQAVVYLSIAPKSNALYTAYGDVQADVEKTAADPVPLHLRNAPTKLMKEIGYGSGYQYAHDLEAKVADMQCLPDNLKDRVYYHPTDQGIEQRIRTRLEEIRREGHHHHHH” here?
A: soluble

Q: For “MSLERTTHQSLNGSWQFQPVAATLHVTPQLQAPAGGWKKINVPDNWYRQGHDISGYAWYQTRFALDAHNASRVAHLVFHGVDYSADVWLNDRYLGHHTGYFQPFEFDVTGLVKPGENQLRVLVNSPLEQPQDWSLHKRLVKGIFSHHDTRPGGAWSERGQEKNTGGIWAPVELQFADRAAVRQLQVTPRKQATEANPQQWVVSTEADIHHDVSHETSVTVEARILPENFKGASFAFKQSQTLQPGGNHIAFSFPVDNPALWWPYEYGHPNLYRLELSVKDASGKLLDQREQVFGVREVKVDDGLQWFINGRRMFLRGTNYIASQWLAEMTPDRYRRDLEMMQAAHINAVRVHAHVTGQDFYELCDRMGILVTQDFPLLWGYSDDPDFIAEARRQAKDMVQLLQRHPSIISWTMHNEPPWDSPWMAQKYPDYHPDINRRLDALLYEDVSKLDTLRVVRKESATKEHEWMGWYFDHWLAFSRPAPTPWSTEFGAQALPNLKSLERMFSKALLWPDTEAKWQVWEYHNFQRKETFEFAGVKQGGNIEEFIANSQHYQARLIQFAVENYRRQRYAPVSAVFQFMFVENWPSINWGIVDYWREPKAGYEALRVAYQPVLPSLEWKEGHHHHHH”, which “soluble on expression in E. coli” value is on record?
A: not soluble

Q: With “MSLESRFCDICGKPAKTYQFGSLLCEDPECLKKAQKLRGGPAGHKLRVISVGSTNPVKVSAVEKAIEKTVGTMLVSSVDTKSGVSDQPQGFEETFKGAYNRAKGAFEKVNCVYGIGIEAGIVEIGEKKLDIHICVVYNGLDYSVGTSQAFQIPKDISDMINEGYECSKIAEETYRVKNIGQKNGIIGVLTDNNILREQLCIDSVVMAMIPKYRRNSQIREGHHHHHH” as the sequence, how does the “soluble on expression in E. coli” value read?
A: soluble

Q: For “MSLESTNRLRYLIAGTGGVGGSIAGFLSLAGKDVTCIARGAHLQAIQQDGLKLKSDLKGEHALRINACTAEEYNGKADVIFVCVKGYSVDSITELIKRAAHDRTIVIPILNVYGTGPRIQRLVPGVTVLDGCIYIVGFVSGPGEITQMGTIFRLVYGAHRGILVPAGLMEAVQRDLQESGIKVEISSDINRDTFIKWSFISAMAVTGAYFDVPMGEVQKPGKVRDTFIGLSTESAALGKKLGIEFKEDIVTYNLKVIDKLAPESTASMQKDIARGHESEVQGLLFDMITAAEEQGIDVPTYREVAKKFIKQEGHHHHHH”, which “soluble on expression in E. coli” value is on record?
A: soluble
